The values below come from patent publication US20250368754A1 (KANAPH THERAPEUTICS, published 2025).

Assay [1] has as its target T1, human FAP on HEK293-hFAP cells (human, UniProt Q12884 1-760).
T1 construct: whole, on cells; also called human FAP-expressing cell line
T1 sequence (looked up): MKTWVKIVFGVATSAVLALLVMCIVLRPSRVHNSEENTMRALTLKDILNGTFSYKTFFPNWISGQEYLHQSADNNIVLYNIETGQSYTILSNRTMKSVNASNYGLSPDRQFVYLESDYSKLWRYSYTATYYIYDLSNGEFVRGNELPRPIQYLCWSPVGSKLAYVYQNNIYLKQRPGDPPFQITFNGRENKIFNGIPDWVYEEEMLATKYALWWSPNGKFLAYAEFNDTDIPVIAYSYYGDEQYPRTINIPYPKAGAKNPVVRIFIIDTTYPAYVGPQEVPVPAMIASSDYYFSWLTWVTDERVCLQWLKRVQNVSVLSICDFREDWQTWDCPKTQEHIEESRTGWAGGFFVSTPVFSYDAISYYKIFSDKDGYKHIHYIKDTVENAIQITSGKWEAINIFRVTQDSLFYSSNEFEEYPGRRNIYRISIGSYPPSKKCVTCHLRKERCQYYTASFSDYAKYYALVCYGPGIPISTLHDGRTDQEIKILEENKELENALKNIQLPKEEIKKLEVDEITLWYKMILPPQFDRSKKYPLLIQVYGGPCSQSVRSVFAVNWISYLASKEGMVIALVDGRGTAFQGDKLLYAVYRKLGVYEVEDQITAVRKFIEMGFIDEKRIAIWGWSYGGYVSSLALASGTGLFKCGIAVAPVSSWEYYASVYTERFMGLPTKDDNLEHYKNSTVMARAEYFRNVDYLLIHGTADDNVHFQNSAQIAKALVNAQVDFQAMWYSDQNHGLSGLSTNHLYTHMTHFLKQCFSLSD
As to the kind of experiment: flow cytometry on HEK293-hFAP cells, 1 µg protein, anti-human IgG detection. The protocol:
(§1) Specifically, the cell line was prepared by suspending in a FACS buffer solution at 1×10⁵ cells/100 μL, and treated with 1 μg each of T3.10, T3.01, T3.05, T3.06, T3.14, and T3.18. The cells were washed twice with a FACS buffer solution. The cells were stained with an anti-human IgG antibody (Biolegend). The negative control sample was stained only with an anti-human IgG antibody (Biolegend). The expression ratio of the stained cells was measured using BD LSR and analyzed using FlowJo software.
Background: Flow cytometry measures light scatter and fluorescence of single cells or particles in a stream.

Assay [2] concerns the target T2, recombinant human lymphotoxin beta receptor (LTβR) (human, UniProt P36941 28-227, limits assumed).
T2 construct: neither construct is described; also called human LTβR; recombinant human LTβR protein
Kind of assay: SPR, human LTβR immobilised on CM5, fusion protein as analyte, 1:1 binding model. The protocol: Specifically, the surface of the CM5 chip was activated with a 1:1 mixture of […], and 5 μg/mL of human LTβR was immobilized for 60 seconds at a rate of 10 μL/min. The remaining active ester groups were blocked with 1 M ethanolamine. […] The diluted fusion proteins were reacted at a rate of 30 μL/min. The association and dissociation times were 180 seconds and 400 seconds, respectively. After the dissociation step, stabilization was performed for 60 seconds, and then the regeneration step was performed for 30 seconds with a 10 mM glycine pH 1.5 solution at a rate of 30 μL/min.
(In general: SPR reads the build-up and loss of mass on a sensor chip optically.)

The target in another assay is human LTβR on A375 cells (human, UniProt P36941 31-435). As to the kind of experiment: cell-based or functional assay.
For assay [3], the target named is T1, human FAP on HEK293-hFAP cells. Kind of assay: flow cytometry on HEK293-hFAP cells, 1 ug protein per 1x10^5 cells, anti-human IgG detection (axis TMEkine-PE). As for the experimental part: as §1
The target of another assay is T3, recombinant human FAP (human, UniProt Q12884 26-760).
T3 construct: also called rhFAP
T3 sequence (looked up): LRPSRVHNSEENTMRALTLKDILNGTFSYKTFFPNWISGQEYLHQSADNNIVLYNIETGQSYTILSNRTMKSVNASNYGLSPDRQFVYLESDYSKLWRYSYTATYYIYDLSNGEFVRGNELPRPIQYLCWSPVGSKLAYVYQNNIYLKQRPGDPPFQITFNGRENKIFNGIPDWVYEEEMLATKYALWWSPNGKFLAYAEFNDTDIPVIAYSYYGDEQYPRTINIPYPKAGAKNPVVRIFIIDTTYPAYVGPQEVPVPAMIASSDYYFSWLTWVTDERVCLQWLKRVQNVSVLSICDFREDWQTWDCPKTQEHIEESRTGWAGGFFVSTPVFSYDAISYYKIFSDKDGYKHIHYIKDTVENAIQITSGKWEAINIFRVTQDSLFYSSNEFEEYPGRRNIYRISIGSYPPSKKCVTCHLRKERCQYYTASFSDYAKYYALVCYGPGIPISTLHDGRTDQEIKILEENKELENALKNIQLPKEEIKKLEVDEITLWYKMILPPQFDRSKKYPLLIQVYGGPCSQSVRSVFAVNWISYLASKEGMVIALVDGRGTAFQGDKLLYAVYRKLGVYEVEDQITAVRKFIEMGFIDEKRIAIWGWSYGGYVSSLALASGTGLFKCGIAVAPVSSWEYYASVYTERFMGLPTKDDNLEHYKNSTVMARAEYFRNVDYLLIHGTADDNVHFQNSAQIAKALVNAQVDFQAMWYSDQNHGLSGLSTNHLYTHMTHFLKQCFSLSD
As to the kind of experiment: SPR, fusion protein captured by anti-human IgG (Fc) on CM5, recombinant human FAP as analyte, 1:1 binding model. The protocol: Specifically, the surface of the CM5 chip was activated with a 1:1 mixture of […] NHS (N-hydroxysuccinimide) and 200 nM EDC (1-ethyl-3-(3-dimethylaminopropyl)carbodiimide), and 20 μg/mL of anti-human IgG (Fc) antibody was immobilized for 400 seconds at a rate of 10 μL/min. The remaining active ester groups were blocked with 1 M ethanolamine. T3.01, T3.07, and T3.14 were diluted to 2 μg/mL, 1 μg/mL, and 2 μg/mL, respectively, and reacted on the CM5 chip immobilized with the anti-human IgG (Fc) antibody. The recombinant human FAP was diluted to 50 nM or 100 nM in 1×HBS-EP+buffer solution and diluted by serial dilution. The diluted recombinant human FAP was reacted at a rate of 30 μL/min. The association and dissociation times were 180 seconds and 400 seconds, respectively. After the dissociation step, stabilization was performed for 60 seconds, and then the regeneration step was performed for 30 seconds with a 10 mM glycine pH 1.5 solution at a rate of 30 μL/min.

Chain of human LTβR on A375 cells (P36941 31-435): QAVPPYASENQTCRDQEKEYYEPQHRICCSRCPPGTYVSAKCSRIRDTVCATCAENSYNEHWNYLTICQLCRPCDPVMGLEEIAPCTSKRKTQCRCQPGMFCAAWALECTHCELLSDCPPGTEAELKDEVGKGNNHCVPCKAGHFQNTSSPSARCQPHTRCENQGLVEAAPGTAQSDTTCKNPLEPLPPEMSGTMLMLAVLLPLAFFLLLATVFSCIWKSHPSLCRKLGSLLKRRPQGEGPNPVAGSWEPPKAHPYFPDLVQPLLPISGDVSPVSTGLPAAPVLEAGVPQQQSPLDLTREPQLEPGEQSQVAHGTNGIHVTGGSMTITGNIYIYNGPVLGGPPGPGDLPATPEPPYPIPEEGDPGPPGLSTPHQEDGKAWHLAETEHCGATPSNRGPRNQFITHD
T2 sequence (P36941 28-227 limits assumed): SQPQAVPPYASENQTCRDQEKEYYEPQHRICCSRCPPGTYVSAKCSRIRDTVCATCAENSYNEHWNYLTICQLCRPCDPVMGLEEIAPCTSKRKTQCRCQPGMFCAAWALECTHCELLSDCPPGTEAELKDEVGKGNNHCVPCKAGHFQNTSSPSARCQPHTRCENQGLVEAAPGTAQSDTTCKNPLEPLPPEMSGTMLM

B1: T3.01 (anti-hu FAP/hu scLIGHT3, hu IgG1 DANG) (bispecific antibody)
heavy: QVQLVQSGAEVKKPGASVKVSCKTSRYTFTEYTIHWVRQAPGQRLEWIGGINPNNGIPNYNQKFKGRVTITVDTSASTAYMELSSLRSEDTAVYYCARRRIAYGYDEGHAMDYWGQGTLVTVSSASTKGPSVFPLAPSSKSTSGGTAALGCLVKDYFPEPVTVSWNSGALTSGVHTFPAVLQSSGLYSLSSVVTVPSSSLGTQTYICNVNHKPSNTKVDKKVEPKSCDKTHTCPPCPAPELLGGPSVFLFPPKPKDTLMISRTPEVTCVVVAVSHEDPEVKFNWYVDGVEVHNAKTKPREEQYGSTYRVVSVLTVLHQDWLNGKEYKCKVSNKALPAPIEKTISKAKGQPREPQVYTLPPSRDELTKNQVSLWCLVKGFYPSDIAVEWESNGQPENNYKTTPPVLDSDGSFFLYSKLTVDKSRWQQGNVFSCSVMHEALHNHYTQKSLSLSPGK
light: not shown
chain: not shown
notes: Knob-into-hole heterodimer: one anti-FAP Fab arm and one single-chain human LIGHT (91-240) homotrimer arm
As for B1, in assay [1], the “percent of cells bound” value is at least 99%. Moreover, in assay [2], the dissociation constant (Kd) (usually the concentration at which binding is half-saturated) amounted to 0.928 nM; the koff (in general, the rate constant with which the complex falls apart) was found to be 0.000321 s⁻¹; the on-rate constant (kon) (in general, the rate constant with which the complex forms) was determined as 346000 M⁻¹ s⁻¹. Further, in the assay with human LTβR on A375 cells, the “IL-8 secretion of A375 cells, EC50 (FIG. 15a)” value was 0.0368 nM and the “IL-8 secretion of A375 cells, EC50 (FIG. 15b)” value is 0.0469 nM. In addition, the “percent of cells in the positive gate” value in assay [3] was determined as 99.5%. For the same molecule, in the assay with recombinant human FAP, the equilibrium dissociation constant (Kd) was 0.0364 nM, the off-rate constant (koff) stood at 3.89e-06 s⁻¹ and the kon was 107000 M⁻¹ s⁻¹.

B2: T3.14 (anti-hu FAP/hu scLIGHT-LTb2, hu IgG1 DANG) (bispecific antibody)
heavy: B1 heavy
light: not shown
chain: not shown
notes: Knob-into-hole; single-chain heterotrimer of one human LIGHT and two human lymphotoxin beta (87-243)
Regarding B2, the “percent of cells bound” value in assay [1] is at least 99%. In assay [2], the Kd was found to be 0.29 nM, the off-rate constant (koff) amounted to 0.000434 s⁻¹ and the on-rate constant (kon) turned out to be 1.5e+06 M⁻¹ s⁻¹. Further, the “IL-8 secretion of A375 cells, EC50 (FIG. 15a)” value with human LTβR on A375 cells was 0.0558 nM. Besides, in assay [3], the “percent of cells in the positive gate” value was 99.9%. In the assay with recombinant human FAP, the Kd turned out to be 0.0123 nM, the dissociation rate constant (koff) came to 1.53e-06 s⁻¹ and the kon was determined as 124000 M⁻¹ s⁻¹.
